Several values for one entry are separate records, joined by “and”; a condition that tells them apart may be missing. Identical values can stand only once.
Biological target: MMP14 (Homo sapiens, UniProt P50281)
Assay: In vitro cleavability of activatable antibodies, capillary electrophoresis
Assay type: biochemical
Design: key to Cleavability (%) 4h MMP14: “—” indicates below limit of quantification
Conditions: 500 nM activatable antibody, 10 nM protease, 4 hours at 37° C.

Substance | Cleavability (%) 4h MMP14
ISSGLLSGRSDNH [CM 2001, reference compound] | 82.2% and 80.2% and 92.9%
GPWGLL [CM 7043] | 77.6%
PWGL [CM 7041, also tested as internally quenched peptide probe] | —
PWGLS [CM 7045] | 15.6%
PYGL [CM 7047, also tested as internally quenched peptide probe] | —

Same assay, conditions: Tables 6A-6C; activatable antibody format

Substance | percent activation for MMP14
PWGLS [CM 7045] | greater than 10%

Biological target: recombinant EGFR (Homo sapiens, UniProt P00533)
Assay: Solid-phase binding assay (ELISA) of anti-EGFR activatable antibodies
Conditions: compared to activatable antibodies with control CM 2001

Substance | effect of CM on apparent masking efficiency
PWGLS [CM 7045] | increasing the apparent masking efficiency

Test system: not given
Assay: not given
Conditions: mouse

Substance | in vivo stability versus control CMs
GPWGLL [CM 7043] | higher in vivo stability

Same assay, conditions: mouse, ip, 10 mg/kg

Substance | In Vivo % Activation (nu/nu, day 7)
GPWGLL [CM 7043] | 44%

Biological target: T1, MMP2 (Homo sapiens, UniProt P08253)
T1 sequence (P08253 110-660): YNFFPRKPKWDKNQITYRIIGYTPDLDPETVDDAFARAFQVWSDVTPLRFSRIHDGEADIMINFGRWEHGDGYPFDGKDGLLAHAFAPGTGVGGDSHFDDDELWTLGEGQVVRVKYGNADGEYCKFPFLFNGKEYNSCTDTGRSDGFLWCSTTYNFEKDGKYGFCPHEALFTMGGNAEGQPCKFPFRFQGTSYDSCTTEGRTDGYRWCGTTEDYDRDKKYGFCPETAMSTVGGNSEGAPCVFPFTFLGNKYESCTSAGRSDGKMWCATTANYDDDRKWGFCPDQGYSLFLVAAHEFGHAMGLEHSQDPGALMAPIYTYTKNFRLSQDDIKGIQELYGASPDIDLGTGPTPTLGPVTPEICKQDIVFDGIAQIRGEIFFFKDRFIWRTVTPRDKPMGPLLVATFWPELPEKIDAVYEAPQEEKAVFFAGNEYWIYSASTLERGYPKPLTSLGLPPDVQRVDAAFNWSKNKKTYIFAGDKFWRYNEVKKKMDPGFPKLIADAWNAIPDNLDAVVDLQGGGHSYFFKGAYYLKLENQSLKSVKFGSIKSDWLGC
Assay: In vitro cleavability of activatable antibodies, capillary electrophoresis
Assay type: biochemical
Design: purchased R&D Systems 902-MP
Conditions: 500 nM activatable antibody, 10 nM protease, 4 hours at 37° C.

Substance | Cleavability (%) 4h MMP2
ISSGLLSGRSDNH [CM 2001, reference compound] | 50.6% and 44.1% and 52.2%
GPWGLL [CM 7043] | 86.0%
PWGL [CM 7041, also tested as internally quenched peptide probe] | 15.8%
PWGLS [CM 7045] | 40.2%
PYGL [CM 7047, also tested as internally quenched peptide probe] | 27.5%

Biological target: MMP9 (Homo sapiens, UniProt P14780)
Assay: as above
Assay type: biochemical
Design: purchased R&D Systems 911-MP; key to Cleavability (%) 4h MMP9: “—” indicates below limit of quantification
Conditions: 500 nM activatable antibody, 10 nM protease, 4 hours at 37° C.

MMP9, sequence (P14780 107-707 limits assumed): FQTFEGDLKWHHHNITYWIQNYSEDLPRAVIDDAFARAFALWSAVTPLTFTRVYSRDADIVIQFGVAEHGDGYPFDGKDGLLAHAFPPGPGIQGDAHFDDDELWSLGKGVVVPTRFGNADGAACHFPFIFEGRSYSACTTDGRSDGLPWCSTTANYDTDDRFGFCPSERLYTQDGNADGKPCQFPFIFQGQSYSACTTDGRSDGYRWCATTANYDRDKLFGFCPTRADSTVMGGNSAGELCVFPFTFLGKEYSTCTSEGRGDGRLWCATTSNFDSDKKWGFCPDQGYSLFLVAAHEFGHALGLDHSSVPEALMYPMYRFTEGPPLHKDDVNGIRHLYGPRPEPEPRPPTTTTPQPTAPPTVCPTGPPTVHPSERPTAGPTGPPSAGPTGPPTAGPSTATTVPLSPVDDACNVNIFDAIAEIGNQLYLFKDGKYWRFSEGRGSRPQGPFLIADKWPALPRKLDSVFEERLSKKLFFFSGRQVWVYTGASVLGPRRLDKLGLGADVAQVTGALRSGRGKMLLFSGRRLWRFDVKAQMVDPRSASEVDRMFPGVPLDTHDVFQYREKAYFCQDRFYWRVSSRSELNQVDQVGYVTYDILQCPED

Substance | Cleavability (%) 4h MMP9
ISSGLLSGRSDNH [CM 2001, reference compound] | —
GPWGLL [CM 7043] | 96.2%
PWGL [CM 7041, also tested as internally quenched peptide probe] | 12.3%
PWGLS [CM 7045] | 74.5%
PYGL [CM 7047, also tested as internally quenched peptide probe] | 19.2%

Biological target: T2, MT-SP1 (Homo sapiens, UniProt Q9Y5Y6)
T2 sequence (Q9Y5Y6 615-855 limits assumed): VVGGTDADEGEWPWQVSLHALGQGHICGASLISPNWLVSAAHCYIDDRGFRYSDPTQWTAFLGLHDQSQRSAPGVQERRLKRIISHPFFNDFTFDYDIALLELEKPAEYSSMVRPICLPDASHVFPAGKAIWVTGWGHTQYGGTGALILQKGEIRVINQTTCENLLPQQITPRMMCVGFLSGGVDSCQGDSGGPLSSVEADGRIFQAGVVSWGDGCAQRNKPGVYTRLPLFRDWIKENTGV
Assay: as above
Assay type: biochemical
Design: purchased R&D Systems 3946-SEB
Conditions: 500 nM activatable antibody, 10 nM protease, 4 hours at 37° C.
Protocol: The studies provided herein evaluate the in vitro cleavability of activatable antibodies containing exemplary CMs that include a substrate cleavable by a matrix metalloprotease (MMP) and/or a substrate cleavable by a matriptase (MT-SP1).
Each activatable antibody (500 nM) was incubated with 10 nM of the indicated single protease for 4 hours at 37° C. Human recombinant proteases were purchased from R&D Systems: MT-SP1 (catalog No: 3946-SEB), MMP2 (catalog No: 902-MP), MMP9 (catalog No: 911-MP), and MMP14 (catalog No: 918-MP). […] Protease concentrations were determined by active site titration. Activity assays were performed in the following buffers: 50 mM TRIS-HCl (pH 7.4), 150 mM NaCl, 0.05% Tween 20 for MT-SP1, 50 mM Tris-HCl, 10 mM CaCl2), 150 mM NaCl, 0.05% (w/v) Brij-35, pH 7.5 for MMP2 and MMP9, and 50 mM HEPES (pH 6.8), 10 mM CaCl2), 0.5 mM MgCl2 for MMP14. Following incubation, the presence of cleavage product was determined by capillary electrophoresis for each protease enzyme using a LabChip GXII Touch system (Perkin Elmer) with the HT Protein Express 100 protocol (Perkin Elmer). LabChip GXII Touch HT Chips (Perkin Elmer #760499) were set up using the protocol of the Protein Express Assay Reagent Kit (Perkin Elmer #CLS960008).

Substance | Cleavability (%) 4h MT-SP1
ISSGLLSGRSDNH [CM 2001, reference compound] | 30.5%

— patent publication US20260042849A1, “PROTEASE-CLEAVABLE MOIETIES AND METHODS OF USE THEREOF” (CytomX Therapeutics, Inc., priority 2022, published 2026)
